Experimental data: article PMC5737521 (Nucleic Acids Research, 2017)

How the values were obtained:
[1] = target: T1, H. sapiens JunD bZIP domain (residues Q266-V332) (human, UniProt P17535 266-332); test: crystal structure
T1 sequence: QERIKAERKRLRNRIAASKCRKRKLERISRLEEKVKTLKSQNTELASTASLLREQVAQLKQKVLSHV

[2] = target: the molecule itself; test: crystal structure
[3] = target: the molecule itself; test: fluorescence polarisation
[4] = target: T2, FosB bZIP domain;JunD bZIP domain (Homo sapiens (cloned from identical Mus …, UniProt P53539;P17535 153-219;266-332, |)); test: fluorescence polarization
T2 sequence 1: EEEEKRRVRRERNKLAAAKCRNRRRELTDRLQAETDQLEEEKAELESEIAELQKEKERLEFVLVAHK
T2 sequence 2: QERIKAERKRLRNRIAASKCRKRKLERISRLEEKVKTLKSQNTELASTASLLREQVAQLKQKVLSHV

B1: Homo sapiens FosB bZIP domain (residues E153-K219) (domain or fragment)
chain: EEEEKRRVRRERNKLAAAKCRNRRRELTDRLQAETDQLEEEKAELESEIAELQKEKERLEFVLVAHK
Does B1 bind [1]?
Result: binds

Does B1 bind [2]?
Result: binds

B2: reduced FosB/JunD bZIP heterodimer (FJ^red) (complex)
chain 1: EEEEKRRVRRERNKLAAAKCRNRRRELTDRLQAETDQLEEEKAELESEIAELQKEKERLEFVLVAHK
chain 2: QERIKAERKRLRNRIAASKCRKRKLERISRLEEKVKTLKSQNTELASTASLLREQVAQLKQKVLSHV
Does B2 bind [3]?
Result: binds

B3: oxidized form of FosB/JunD bZIP heterodimer (FJ^oxi) (complex)
chain 1: EEEEKRRVRRERNKLAAAKCRNRRRELTDRLQAETDQLEEEKAELESEIAELQKEKERLEFVLVAHK
chain 2: QERIKAERKRLRNRIAASKCRKRKLERISRLEEKVKTLKSQNTELASTASLLREQVAQLKQKVLSHV
Does B3 bind [2]?
Result: binds

B4: TAMRA AP-1 19-mer (cyclin-dependent kinase 5 promoter) (dsDNA)
DNA 1: CGTCGGTGACTCAAAACAC
DNA 2: GTGTTTTGAGTCACCGACG
Does B4 bind [4]?
Result: binds
